Results as given in a protein production outcome set (Wang et al. 2014).

Assay: label from the status in PepcDB records

CLEDILSATKMVINLCLPQFRPRIHCNKISADGYEVENLISEDLTKRSHGFRTEYFIKPPVYVTVSFPFNVEICRINIDLTAGGGQNVTGLEMYTSASSSRVSWNTPQCRTLGPAEPSVPDKEAFTLVGKVLLKNQSQVVFSHRGFKARPPFGAMEATLPSPAVVAQELWNKGALSLSHVAHLRICITHVTGGGIPCIKRLEVWGQPAKTCSQEVIDSILLVTSENLPQDVALQAPALPMESDCDPGDQPESQQAPSSLQKLAEIIQDVPEEFLDPITLEIMPCPMLLPSGKVIDQSTLEKCNRSEATWGRVPSDPFTGVAFTPHSQPLPHPSLKARIDHFLLQHSIPGCHLLGRAQTALAVIPSSIVLPSQKRKIEQAEHVPDSNFGVNASCFSATSPLVLPTTSEHTAKKMKATNEPSLTHMDCSTGPLSHEQKLSQSLEIALASTLGSMPSFTARLTRGQLQHLGTRGSNTSWRPGTGSEQPGSILGPECASCKRVFSPYFKKEPVYQLPCGHLLCRPCLGEKQRSLPMTCTACQRPVASQDVLRVHF
protein production: not failed

VEVIRARRLLDGQASTTGYFDNIEHCIDEEFGQCSITSNDKLLLVGSGAYPMTLIQVAKETGASVIGIDIDPQAVDLGRRIVNVLAPNEDITITDQKVSELKDIKDVTHIIFSSTIPLKYSILEELYDLTNENVVVAM
protein production: failed

MVEYDLSVIILNYNAKRFLEECINSIYENTKEIKFEVILVDNKSTDNSAEFIKEKFTGKEDFTFIESKVNCGFAAGNNKAIEVSKGRAVLLLNPDTVVNGNVIGETYKCLMKDDKVGVAGCKVLNPDGTLQLACRRMIPTPKDAFYKIFGLSKIFKNNKKFTRYNLTYASADEFIDVDSVSGSYLMIKKEVIDKIGYLDETFFMYGEEMDWCLRARKAGYIVRYCPVGTIIHYKGESSKQLSHKATYEFYRAMWIFYKKNNKGNIFLDSIVWLGVKFLLFIALIKLAILPKNRVGSKG
protein production: failed

MSEMSPKEFKHILVGVDDSDDAQLAFRYAINRAKSDGAKLTIVSILEQDNMNVYEAMSKDFVHGQRKDLEEHVQQYQKLARDFGVTDVNAVVDEGDPGETIVKTVIPALKPDLLVIGSVAKHGVRKYFGSQAAYMAKHAPISVLVIR
protein production: failed

MLFEGLPCLAVWCKNRLSAVLPVGGLNVSENLLEIETHPFDPVLPPKAAVMMMGTFPPKEDKRAMQFHYPNFQNDMWRVYGLVFFNDAAHFQRLSEKAFDAEKIKAFLHERGIASCPTVLKAVRQHGNASDKFLKVVETVDLAAVLAKIPECRHICTTGGKATEILLDIQGGGIKMPKTGETVPFPFAGRDLTLTRLPSTSRAYPLSLAKKAAAYRAFFEMAGLCEKQLLEHHHHHH
protein production: failed

MTNTTYVQEYHAIVEVLSKYNEGGKKADSTIMRPAFSSQATIFGVDVDNKLTGGPIQGLFDVIDNVFHPSPEAKAAIARIDIVGTAASARIDTDDISGFRFTDFFNLLKVEGKWTVVSKIYHTHPSA
protein production: not failed

MVGLGTVINVILIIVGGFVGLFLKNFLKESLQKSLMQAMGVAVLFISISGVLEKMMLVEKSHLISNHTNMMIITLALGTVLGELLSLDSYIDKFGNYLKQKTGSGNDIKFVEAFVTSTCTVCIGAMAVVGSIQDGIAADHSILFAKGMLDMIIIAIMTVSLGKGALFSALPVALLQGSLTIVAFFMGSLLNPSSLDYLNLVGNMLIFCVGVNLLFNLNIKVINMLPAIILAILWGSFI
protein production: failed

MDFGLATTLYPDEYNYQTDAYSPTSSPVDLVQVIQQLHASLDPRTVFACYGKVLGQHLPIQGVRLQSEQHKLSWGKRYGISLKRQIICGGTPLTLQYQLLTPLTPSQSICLQEIEPLLLQPLLNAMQYQEMSMQAMFDALTGLGNRHYYSQSLKNAVARAQRKQGSVSLIVLDLDNFKKLNDKYGHKCGDYILKEFGDIIRSSIRSTDQAFRIGGDEFVVIVQGNIHAAGLLCERIVSATNTHASFHQFGVSCSLGAAEASETMEAEQLYEQADKTLYQAKASGRNCYKLSPTQLS
protein production: failed

MTQPHQIILLAHGSSDARWCETFEKLAEPTVESIENAAIAYMELAEPSLDTIVNRAKGQGVEQFTVVPLFLAAGRHLRKDVPAMIERLEAEHGVTIRLAEPIGKNPRLGLAIRDVVKEELERSEH
protein production: not failed

GSAYTPLSEDESHRIFELVKEIDTSNQDASKSEKILQQRLDLLHQVRLRYFTPREVARLMSFPENFEFPPETTNRQKYRLLGNSINVKVVGELIKLLTIK
protein production: failed

MSVKMKKCSREDLQTLQQLSIETFNDTFKEQNSPENMKAYLESAFNTEQLEKELSNMSSQFFFIYFDHEIAGYVKVNIDDAQSEEMGAESLEIERIYIKNSFQKHGLGKHLLNKAIEIALERNKKNIWLGVWEKNENAIAFYKKMGFVQTGAHSFYMGDEEQTDLIMAKTLILEHHHHHH
protein production: not failed

MKFGPRRPADAIGGVTVHSLRQNGLLLKKGTTIGPAEVAALEKAGIAEIVVVQLEPGDVSEDVAAADVAGAVAGDGITVDRAFTGRANLFAGRTGVLVIDRAVVDRINAVDEAITLATLPAFKPVVEGEMVATVKLIPFGVESRLRDAAVAAAQGSALRVAPYVIKRVGVVSTLLPGLAPKVIDKTLRVTAERLAPAGAEIIAERRVAHEEAALSAAIKELLGLGADMVIVFGASAIADRRDVIPAAIGTVGGTISHFGMPVDPGNLLLVGSVSGVPVLGAPGCARSPVENGFDWVLMRLLAGLTVTRADITAMGVGGLLMEIVTRPQPRVPVAESGRNVAAIVLAAGRGTRMGGPNKLLADLNGKPLVRIVAEQALASQAARTIIVTGHQAGEVEAALYGLDLTFVHNPDFAQGIASSVKTGIAALGEDADGAIVCLGDMPLIDAALIDRMITAFDPDRGALIVVPVAEGRRGNPVLWSRRFFTELMTLGGDVGARHLIAKHGEAVTEVPVEGEAAFLDIDTPQALDEARRG
protein production: failed

ASLKDFELSKMLEKVAKESSVGTPRAINEDILDQGYTVEGNQLINHLSVRASHAERMRSNPDSVRSQLGDSVCSNTGYRQLLARGAILTYSFTEYKTNQPVATERFDAGSCRIQGKK
protein production: not failed

DLNLPIYPVKGYSLTLPVTNSDGAPVSTVLDESYKVAITRFDNRIRVGGMAELSGYEIKLPEKRRETLALVVNDLFPEGGDLSQASFWSGLRPMTPDSTPLIGRTRFDN
protein production: failed

MKIQLDINGTEIQKGVWVGSGAIIEPGAILNPPCVIGDNCRIESGAVIDSLSVIGNNNVIERDSSVKRSVIWDGNYIEYGSKIRGAILCSKTNLKRYVHIFENAIVGDNCLINERVVIKPNIKIWPQKTVEPFAIVDRNIIWGSKLEHHHHHH
protein production: failed

MSNQQNVWVAYATQTQQFHIRVAFQQGMTAWQAIESSGLLTQVELPQPYHLGIFGVRCVADRLLEAGDRVEIYRPLTINPKDIRRKRAEKNPVGRFQKGNRFK
protein production: failed

MDKDYYKIMGVSQDASEKDIKMAYRKLARKYHPDISKEPDAEERFKEMAEAYEVLKDPKKRSEYDQYLKYKEFNPQSDGFTGRRTQEQPFQEFHFDSDFFETLFGHSRYQQQPMTGQNYHGKITISLEEAYHGAVKNLQVPVEQGTETKIQTLKVKIPAGVKSGQQIRLAGQGGSGSGGGARGDLYLTVEVMKHPIFDVMENDIYLTLPVTPWEAALGATVVIPTLAGKIDLKIPPGSQGGQKLRIKNRGLPGSPPGNQYVLLKIITPPAQTEEAKALYKKMAEVMPYNPRKTMGV
protein production: failed

MAGFPELVVLDPPWDKELAAGTESQALVSATPREDFRVRCTSKRAVTEMLQLCGRFVQKLGDALPEEIREPALRDAQWTFESAVQENISINGQAWQEASDNCFMDSDIKVLEDQFDEIIVDIATKRKQYPRKILECVIKTIKAKQEILKQYHPVVHPLDLKYDPDPAPHMENLKCRGETVAKEISEAMKSLPALIEQGEGFSQVLRMQPVIHLQRIHQEVFSSCHRKPDAKPENFITQIETTPTETASRKTSDVVLKRKQTKDCPQRKWYPLRPKKINLDT
protein production: failed

MIIDDIINKIKSSNKIAISFHISPDGDSIGSSLGLLNGLRSIGKETYILSKEVVPESFEFLNFAREIDGNHFEVEDNTDLLITLDCGNIERLNFDTSDMISEDKKYTVINIDHHVTNDSFGDLNYINTKAASVGEIVYDLLSKMNISIDRTIAACLYTSILTDTGSFRFSNTTLNTHVVAGNLISTGLDFSEIHRKIFDNKKFEALKLQALVLNDMYLTFNNKLCVMKVTHDFIEKANAEDVDTGDLVSLGLKVNTAEVCMLLKEKDDCIKVSLRSKSYVDVRKIAEKFGGGGHIRAAGLSINSNILDAEKMILSEIQGELLEHHHHHH
protein production: failed

MDEYAGRVLADRYRLPLPPSDEYELAETRAFDTYSGQEVLVRQVPLPEVVEAEVLDADGLPAGFVARDGGTRRASARTATRRPAEPAVRRAIEAAQAAAQIPDHPRLDQVFDVFAEGGSLWIVSELVAARPLAALLADKPLSPYRAAEVASDVLMALRVLHAHGWVHRNITVRTVLVCDDGRVMLTGLAAGAAEEALCGYDPVPVRDFEPRGDDGGDGTGGNGRGAVRGAAAGGTPGIGSGPGAGSGRPGIGAGSGGPVGAAGGAVGAAAGGMSVAEAEAARRAAIEARAGGVGPVAGTPGGEVPARGARALEGGGDARAQRAGAIAAYRAGARAAARVQEAQRGGRAALPAPRPADAEGRAPQSPGHGVEHLPGALPGQIADPYGVARTNSWPGGFPGDVGGANVGGAYGTPGNGSGTYENGSVPHAPADAPVSTPTPADAVPPTHWDHLVSGSSAPSGPSAASVPRRGPTTALAAERARQARMAVIGPVTERWAPEQAGPVHENWQLAAPIGPATDLWALGALLFRAVQGHAPYPEENTAELVQLVCAEPPAFAEECGPLRPVVESLLRQDPTERLDFEEVRGWLRSLVRSAPEPEAGAHVVAAPPVDPRRLPIVRRRGELVRRRRARLPATTPHARHKRAKDGRPPRPKRLGRNLVLLILLVLAAAVAYAMVFMPKASPNSDSGSRSDGDRTGAAGGVSPAPEQSGGGSEPRPDQTSPGSGKSPSGSSGSTREQTTDPDVAQGFTLRKDPEGFRVAVATGWDRAPKNGRGRIVYSHGDFELIVVPGRDSTADHGSDPLTYQRETESELQPFRDSTWATSSGMRRIDVGGRTMAEGQFTWTDGQGRELFVRNLAIVVGGRYHVVQLRGPEAERDEVTRLYEQASRTYQVTG
protein production: failed

MSPIILSITIIAYFMILFAISYIAGHKADNEGFFVGNRKSAWYIVAFAMIGSTISGVTFVSVPGMVQASGFSYLQMVLGFIVGQFIIAFILVPLFYRMNLVSIYEYLENRFGASSYKTGAWFFFISKMLGAAVRLFLVCLTLQLLIFEPFHIPFIINVILTVLIVWLYTFRGGVKSLIWTDVLKTFCLVVSVVLCIYYIASSLHLNFSGLVSTISDNDLSKMFFFDDVNDKRYFFKQFLAGVFTVIAMNGLDQDMMQRNLSCKNFRDSQKNMITSGISQFFVILLFLMLGVLLYTFTARQGIENPGKSDELFPMIATGNYFPGIVGILFIIGLIASAYSAAGSALTALTTSFTVDILNAHKKDEAALSKIRKHVHIGMAFVMGIVIFVFNLLNNTSVIDAIYTLASYTYGPILGLFAFGIFTKKQVYDPYIPLVAILSPALCYVLQRNSEAWFDGYQISYELLILNAAFTFLGLCLLIKRKSSVAPINNSLIKKH
protein production: failed

AAKPQIVEVTDDMPVEPIGVGIPEAGQTYPVIMGDYAAQQARWARIDVQPGTALSKPKPLIAKLDPELGETGPEWAPVNP
protein production: failed

MNAYYYLAIAICAEVIATVSMKAVKGLSTPLPLALIIVGYGVAFWMLTLVVRTVPVGVAYAVWAGMGIVMVSIAALFLYGQKLDIPAMLGMALIVLGVVVIQLFSKTAGH
protein production: failed
